# Data: US10428140B2, “Anti-EphA4 antibody” (EISAI R&D MANAGEMENT CO., LTD., priority 2015, dated 2019)
# Numbering of substitutions follows the chain as printed.
# B1: 77 (antibody, V domains shown)
# VH: QVQLVQSGSELKKPGASVKVSCKASGYTFTDYSMHWVRQAPGQGLEWMGWINTETGEPTYADDFKGRFVFSLDTSVSTAYLQISSLKAEDTAVYYCARIPLYYYGSRYWYFDVWGQGTTVTVSS
# VL: DIQMTQSPSSLSASVGDRVTITCRASENIYRNLAWYQQKPGKAPKLLVYAATNLADGVPSRFSGSGSGTDYTLTISSLQPEDFATYYCQHFWGTPWTFGQGTKVEIK
# modifications: synthetic humanized antibody heavy chain variable region sequence; synthetic humanized antibody light chain variable region sequence
# B2: 78 (antibody, V domains shown)
# VH: B1 VH with E46K
# VL: B1 VL
# modifications: synthetic humanized antibody heavy chain variable region sequence; synthetic humanized antibody light chain variable region sequence
# B3: 156 (antibody, V domains shown)
# VH: B1 VH with V2I, E46K, D62Q, D63G, K65T
# VL: B1 VL with K45Q, V48L
# modifications: synthetic humanized antibody heavy chain variable region sequence; synthetic humanized antibody light chain variable region sequence
# B4: 136 (antibody, V domains shown)
# VH: B1 VH with E46K
# VL: EIVMTQSPATLSVSPGERATLSCRASENIYRNLAWYQQKPGQSPRLLIYAATNLADGIPARFSGSGSGTEYTLTISSLQSEDFAVYYCQHFWGTPWTFGQGTKVEIK
# modifications: synthetic humanized antibody heavy chain variable region sequence; synthetic humanized antibody light chain variable region sequence
# Molecular target: T1, human EphB2 (Homo sapiens, UniProt P29323)
# T1 construct: a protein of the extracellular region of each human Eph receptor fused with the SEAP protein and the His tag; made in house; host or cells: Expi293F cells
# T1 sequence (P29323 19-543 limits assumed): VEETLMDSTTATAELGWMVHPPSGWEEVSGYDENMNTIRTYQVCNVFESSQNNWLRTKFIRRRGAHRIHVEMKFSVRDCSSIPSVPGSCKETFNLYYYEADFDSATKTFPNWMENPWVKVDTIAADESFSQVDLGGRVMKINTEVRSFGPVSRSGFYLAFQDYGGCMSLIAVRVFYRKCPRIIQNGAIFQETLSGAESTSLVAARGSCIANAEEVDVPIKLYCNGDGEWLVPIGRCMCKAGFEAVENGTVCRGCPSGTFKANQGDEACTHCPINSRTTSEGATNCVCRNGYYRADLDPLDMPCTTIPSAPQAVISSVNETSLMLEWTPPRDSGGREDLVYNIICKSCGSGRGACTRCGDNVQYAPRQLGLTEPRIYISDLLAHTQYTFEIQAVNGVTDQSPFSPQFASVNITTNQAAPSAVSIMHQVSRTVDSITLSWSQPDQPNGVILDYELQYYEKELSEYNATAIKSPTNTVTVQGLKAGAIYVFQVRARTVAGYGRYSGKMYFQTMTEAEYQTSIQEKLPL
# Assay: Selectivity ELISA of humanized antibodies for human Eph receptor
# Format: binding
# Details: coated protein 1 nM
# Method in brief: (§1)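 Capture ELISA: anti-6-His coat, 1% BlockAce block, Eph ECD-SEAP-His (1 nM final, Expi293F supernatant) 1 h RT, humanized Ab 1 h RT, HRP anti-IgG 1 h RT, TMB, H2SO4 stop, A450.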
row,Molecule,"hEphB2-SEAP-: absorbance at 450 nm, percentage with respect to hEphA4-SEAP-His as 100%"
1,B1,4.5%
2,B2,5.1%
3,B3,5.5%
4,B4,5.3%

# Molecular target: T2, human EphA7 (Homo sapiens, UniProt Q15375)
# T2 construct: a protein of the extracellular region of each human Eph receptor fused with the SEAP protein and the His tag; made in house; host or cells: Expi293F cells (culture supernatant)
# T2 sequence (Q15375 28-555 limits assumed): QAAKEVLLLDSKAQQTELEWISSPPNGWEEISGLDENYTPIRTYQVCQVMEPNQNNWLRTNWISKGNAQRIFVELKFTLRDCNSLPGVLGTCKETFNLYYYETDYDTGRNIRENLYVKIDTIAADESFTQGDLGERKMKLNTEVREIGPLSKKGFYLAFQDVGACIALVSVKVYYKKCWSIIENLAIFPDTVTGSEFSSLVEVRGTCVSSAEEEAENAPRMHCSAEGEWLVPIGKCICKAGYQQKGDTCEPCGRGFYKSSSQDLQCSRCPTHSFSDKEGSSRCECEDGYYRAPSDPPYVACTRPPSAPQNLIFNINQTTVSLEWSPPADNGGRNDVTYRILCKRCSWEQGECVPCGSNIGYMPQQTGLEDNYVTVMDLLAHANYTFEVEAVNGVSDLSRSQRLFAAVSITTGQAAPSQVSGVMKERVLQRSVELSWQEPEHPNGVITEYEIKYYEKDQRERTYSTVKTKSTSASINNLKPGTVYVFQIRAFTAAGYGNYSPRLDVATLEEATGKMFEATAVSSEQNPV
# Assay: as above
# Format: binding
# Details: coated protein 1 nM
# Method in brief: as §1
row,Molecule,"hEphA7-SEAP-: absorbance at 450 nm, percentage with respect to hEphA4-SEAP-His as 100%"
1,B1,4.3%
2,B2,5.0%
3,B3,5.6%
4,B4,5.4%

# Molecular target: T3, human EphA5 (Homo sapiens, UniProt P54756)
# T3 construct: a protein of the extracellular region of each human Eph receptor fused with the SEAP protein and the His tag; made in house; host or cells: Expi293F cells (culture supernatant)
# T3 sequence (P54756 25-573 limits assumed): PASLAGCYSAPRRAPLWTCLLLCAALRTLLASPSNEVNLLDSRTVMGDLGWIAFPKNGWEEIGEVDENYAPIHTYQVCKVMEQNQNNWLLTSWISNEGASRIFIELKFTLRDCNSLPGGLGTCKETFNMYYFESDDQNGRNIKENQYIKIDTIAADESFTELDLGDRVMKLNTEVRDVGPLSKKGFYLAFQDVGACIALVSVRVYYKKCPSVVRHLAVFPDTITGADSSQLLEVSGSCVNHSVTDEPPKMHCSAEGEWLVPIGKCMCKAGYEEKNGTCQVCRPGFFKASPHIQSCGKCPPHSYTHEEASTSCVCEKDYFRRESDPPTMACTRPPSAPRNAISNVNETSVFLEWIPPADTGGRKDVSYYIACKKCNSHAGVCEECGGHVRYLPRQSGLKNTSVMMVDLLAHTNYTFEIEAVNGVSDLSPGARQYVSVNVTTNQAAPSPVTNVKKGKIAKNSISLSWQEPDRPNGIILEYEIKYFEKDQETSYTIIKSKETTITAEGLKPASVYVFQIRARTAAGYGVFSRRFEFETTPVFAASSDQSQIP
# Assay: as above
# Format: binding
# Details: coated protein 1 nM
# Method in brief: as §1
row,Molecule,"hEphA5-SEAP-: absorbance at 450 nm, percentage with respect to hEphA4-SEAP-His as 100%"
1,B1,4.4%
2,B2,5.1%
3,B3,5.7%
4,B4,5.2%

# Molecular target: T4, human EphB1 (Homo sapiens, UniProt P54762)
# T4 construct: a protein of the extracellular region of each human Eph receptor fused with the SEAP protein and the His tag; made in house; host or cells: Expi293F cells (culture supernatant)
# T4 sequence (P54762 18-540 limits assumed): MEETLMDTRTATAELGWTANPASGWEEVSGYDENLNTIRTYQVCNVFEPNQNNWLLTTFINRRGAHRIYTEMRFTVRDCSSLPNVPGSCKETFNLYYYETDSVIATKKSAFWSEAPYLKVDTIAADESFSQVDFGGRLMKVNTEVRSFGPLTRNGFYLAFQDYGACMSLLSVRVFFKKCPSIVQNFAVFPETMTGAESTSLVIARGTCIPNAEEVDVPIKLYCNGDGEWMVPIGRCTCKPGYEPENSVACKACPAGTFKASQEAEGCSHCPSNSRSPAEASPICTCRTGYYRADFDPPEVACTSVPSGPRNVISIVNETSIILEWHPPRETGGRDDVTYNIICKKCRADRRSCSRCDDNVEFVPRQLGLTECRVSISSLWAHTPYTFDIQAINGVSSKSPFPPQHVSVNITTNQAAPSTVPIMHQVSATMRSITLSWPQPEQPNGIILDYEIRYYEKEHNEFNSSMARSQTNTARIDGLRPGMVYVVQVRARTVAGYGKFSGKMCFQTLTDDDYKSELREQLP
# Assay: as above
# Format: binding
# Details: coated protein 1 nM
# Method in brief: as §1
row,Molecule,"hEphB1-SEAP-: absorbance at 450 nm, percentage with respect to hEphA4-SEAP-His as 100%"
1,B1,4.6%
2,B2,5.0%
3,B3,5.4%
4,B4,5.2%
